For data set [1] the following is noted: substrate MVAPP, cited from earlier work.
Data set [2] in a line: In vitro decarboxylase activity toward MVA. The format is biochemical. How it is done: In vitro enzyme kinetics of decarboxylases are performed as described in previous studies (Barta et al., 2012 and Vannice et al., 2014). Briefly, enzymatic activity of decarboxylase is determined by a spectrophotometer assay quantifying ADP product formation, which is coupled to NADH oxidation by pyruvate kinase/lactate dehydrogenase. Assay mixtures are prepared in 50 mM HEPES-KOH (pH 7.5) containing 10 mM MgCl2, 400 μM phosphoenolpyruvate, 200 μM NADH, 4 mM ATP, and 25 U of pyruvate kinase/lactate dehydrogenase (Sigma, P0294). […]

The test system of another data set is E. coli BW25113. Put plainly: Isopentenol production in E. coli. The data set is classed as cell-based, Escherichia coli. The conditions noted are these: for isopentenol productivity: pathway II, through 30 hours of batch fermentation; for effect on in vivo isopentenol production: expressed in IPP-bypass pathway II in E. coli. How it is done:
E. coli BW25113 harboring two plasmids is used for isopentenol production. Seed cultures of all production strains are prepared by growing single colonies in LB medium containing 100 μg/mL ampicillin and 30 μg/mL chloramphenicol overnight at 37° C. with shaking at 200 rpm. The seed cultures are diluted in EZ-Rich defined medium (Teknova, USA) containing 10 g/L glucose (1%, w/v), 100 μg/mL ampicillin and 30 μg/mL chloramphenicol. The E. coli cell cultures are incubated in rotary shakers (200 rpm) at 37° C., and 0.5 mM IPTG is added to induce protein expression at OD600 of 0.6-0.8. To provide different levels of aeration, identical volumes of the cell culture are split into two flasks for incubation at 30° C. with shaking at either 200 rpm or 30 rpm.
For isopentenol quantification, 250 μL of cell culture is combined with 250 μL of ethyl acetate containing 1-butanol (30 mg/L) as an internal standard. This mixture of ethyl acetate and cell culture is vigorously shaken for 15 min and subsequently centrifuged at 13,000 g for 2 min to separate ethyl acetate from the aqueous phase. 100 μL of the ethyl acetate layer was diluted 5-fold, and 1 μL is analyzed by Agilent GCMS equipped with Cyclosil-B column (Agilent, USA) or Thermo GCFID equipped with DB-WAX column (Agilent, USA) for quantitation of isopentenol.

The nature of data set [3]: In vitro enzyme kinetics of decarboxylases, ADP formation coupled to NADH oxidation. The data set is classed as biochemical. Particulars: for Km / kcat / % of WT (kcat/Km): substrate MVAP; for % of WT (kcat/Km): relative to PMDsc wild type. The procedure:
A plasmid encoding a wild type mevalonate diphosphate decarboxylase from Saccharomyces cerevisiae (PMDsc) with N-terminal His-tag (pSKB3-PMDsc) is transformed into E. coli BL21 (DE3). A seed culture of BL21 (DE3) harboring pSKB3-PMDsc is prepared by inoculating a single colony and growing it overnight in Luria-Bertani (LB) medium containing kanamycin (50 μg/mL). The seed culture is diluted in Terrific Broth supplemented with 2% glycerol and 50 μg/mL kanamycin and incubated at 37° C. until the optical density of the culture at 600 nm (OD600) reached to 0.6-0.8. The cell culture is supplemented with isopropyl-β-D-thiogalactopyranoside (IPTG) to the final concentration of 0.5 mM and transferred to 18° C. for protein expression overnight. Cells are collected by centrifugation and re-suspended in 50 mM Tris-HCl (pH 7.5) buffer containing 300 mM NaCl and 10 mM imidazole. Cells are lysed by sonication and purified by HisPur Cobalt Resins (Thermo Scientific, USA). The purified PMDss is desalted in 10 mM Tris-HCl (pH 7.5) containing 50 mM NaCl, 0.5 mM dithiothreitol (DTT) and 20% glycerol, and flash-frozen in liquid nitrogen for storage at −80° C. All PIVD mutants, PMDsc, and NudB are purified as described above, except that NudB is desalted in 50 mM Tris-HCl (pH 8.0) buffer containing 0.1 mM EDTA, 1 mM DTT and 20% glycerol.
In vitro enzyme kinetics of decarboxylases are performed as described in previous studies (Barta et al., 2012 and Vannice et al., 2014). Briefly, enzymatic activity of decarboxylase is determined by a spectrophotometer assay quantifying ADP product formation, which is coupled to NADH oxidation by pyruvate kinase/lactate dehydrogenase. Assay mixtures are prepared in 50 mM HEPES-KOH (pH 7.5) containing 10 mM MgCl2, 400 μM phosphoenolpyruvate, 200 μM NADH, 4 mM ATP, and 25 U of pyruvate kinase/lactate dehydrogenase (Sigma, P0294). The reaction is initiated by addition of various concentrations of MVAP from 100 μM to 4,000 μM, and the reaction velocity is determined by monitoring OD at 340 nm in Spectramax 384plus microplate reader (Molecular Devices, USA).

Test in data set [4]: as above
The data set is classed as biochemical. The conditions noted are these: in vitro assay reactions using cell lysates.

Data set [5] is described as follows: In vitro hydrolysis of IPP by purified Nudix hydrolase. Particulars: purified enzyme with IPP; up to 16 hours. The data set is classed as biochemical. How it is done:
All metabolites are analyzed by liquid chromatography mass spectrometry (LC-MS; Agilent Technologies 1200 Series HPLC system and Agilent Technologies 6210 time-of-flight mass spectrometer) on a ZIC-HILIC column (150 mm length, 2.1-mm internal diameter, and 3.5-μm particle size). Standard chemicals (IPP and IP) are purchased from Sigma-Aldrich (USA). Metabolites are eluted isocratically with a mobile phase composition of 64% (v/v) acetonitrile containing 50 mM ammonium acetate with a flow rate of 0.15 mL/min. IPP and IP from E. coli extracts or enzyme assay are quantified via […] calibration curves ranging from 781.25 nM to 200 μM.

Changes are numbered by the printed parent chain. Names may count otherwise. “And” between values parts separate entries of the source, which are not always exact repeats. Equal values may be shown once. Read-outs that look alike come from different tables or passages of the source.

As a reminder, the Km is the concentration of substrate that gives half-maximal velocity. As usually defined, the kcat is the number of substrate molecules converted per active site and unit of time at saturation.

B1: PMDsc WT: wild type mevalonate diphosphate decarboxylase from Saccharomyces cerevisiae (protein, UniProt P32377 1-396, looked up)
Diphosphomevalonate …: MTVYTASVTAPVNIATLKYWGKRDTKLNLPTNSSISVTLSQDDLRTLTSAATAPEFERDTLWLNGEPHSIDNERTQNCLRDLRQLRKEMESKDASLPTLSQWKLHIVSENNFPTAAGLASSAAGFAALVSAIAKLYQLPQSTSEISRIARKGSGSACRSLFGGYVAWEMGKAEDGHDSMAVQIADSSDWPQMKACVLVVSDIKKDVSSTQGMQLTVATSELFKERIEHVVPKRFEVMRKAIVEKDFATFAKETMMDSNSFHATCLDSFPPIFYMNDTSKRIISWCHTINQFYGETIVAYTFDAGPNAVLYYLAENESKLFAFIYKLFGSVPGWDKKFTTEQLEAFNHQFESSNFTARELDLELQKDVARVILTQVGSGPQETNESLIDAKTGLPKE
Regarding B1, the Km in data set [1] (Krepkiy and Miziorko, 2004) is 123 µM. Moreover, the kcat in data set [1] (literature) is 5.9 s⁻¹ and 5.4 s⁻¹. In addition, the “activity on MVA” value in data set [2] was “too low to determine the kinetic parameters”. This molecule also gave an isopentenol productivity with E. coli BW25113 of 15.9 mg/L/h. In addition, in data set [3] (MVAP vs native substrate MVAPP), the “Km toward MVAP, fold higher than reported Km toward MVAPP” value is about 8 fold and the “kcat toward MVAP, fold lower than reported kcat toward MVAPP” value is “about 35 fold”. Besides, in data set [3], the Michaelis-Menten constant (Km) worked out at 990 µM, the kcat was found to be 0.14 s⁻¹ and the “% of WT (kcat/Km)” value was found to be 100%.

B2: PMDsc T209D: PMDsc mutant, T209 mutated to negatively charged aspartate (protein)
chain: B1 Diphosphomevalonate … with T209D
For B2, the “effect on in vivo isopentenol production” value in the data set with E. coli BW25113 is reported as “do not significantly change the in vivo production titer”. Also, in data set [3], the Km was 990 µM, the kcat amounted to 0.13 s⁻¹ and the “% of WT (kcat/Km)” value stood at 98%.

B3: PMDsc K22M: PMDsc mutant, K22 mutated to neutral methionine (protein)
chain: B1 Diphosphomevalonate … with K22M
On to B3, for which the “effect on in vivo isopentenol production” value with E. coli BW25113 is on record as “do not significantly change the in vivo production titer”. Further, in data set [3], the Michaelis constant (Km) is 2470 µM, the kcat worked out at 0.09 s⁻¹ and the “% of WT (kcat/Km)” value amounted to 25%.

B4: S208E: PMDsc mutant, serine 208 mutated to glutamate (protein, UniProt P32377 1-396, looked up, variant S208E)
Diphosphomevalonate …: B1 Diphosphomevalonate … with S208E
Regarding B4, the “product formation from MVAP” value in data set [4] is given as “do not produce detectible amount of product”.

B5: PMDsc R74H: PMDsc mutant R74H (protein)
chain: B1 Diphosphomevalonate … with R74H
Turning to B5, in data set [2], the “activity on MVA” value is listed as “do not show detectible hydrolysis activity on MVA”. For the same molecule, the isopentenol productivity with E. coli BW25113 was 20.4 mg/L/h. For the same molecule, in data set [3], the Michaelis-Menten constant (Km) amounted to 770 µM, the catalytic constant (kcat) was 0.23 s⁻¹ and the “% of WT (kcat/Km)” value was 220%. Moreover, in data set [3] (listed as R74H), the “% of WT (kcat/Km)” value is reported as 220%.

B6: S155E: PMDsc mutant, serine 155 mutated to glutamate (protein, UniProt P32377 1-396, looked up, variant S155E)
Diphosphomevalonate …: B1 Diphosphomevalonate … with S155E
As for B6, in data set [4], the “product formation from MVAP” value is on record as “do not produce detectible amount of product”.

B7: PMDsc I145F: PMDsc mutant I145F (protein)
chain: B1 Diphosphomevalonate … with I145F
For the molecule B7, in data set [2], the “activity on MVA” value is on record as “do not show detectible hydrolysis activity on MVA”. The “effect on in vivo isopentenol production” value with E. coli BW25113 was “reduces isopentenol titer and productivity”. In data set [3], the Km was 1360 µM, the kcat was determined as 0.28 s⁻¹ and the “% of WT (kcat/Km)” value is on record as 147%. Moreover, the “% of WT (kcat/Km)” value in data set [3] (listed as I145F) was 147%.

B8: NudF: NudF of B. subtilis, identified as a IPP hydrolase (protein, UniProt P54570 1-185, looked up)
ADP-ribose pyrophosphatase: MKSLEEKTIAKEQIFSGKVIDLYVEDVELPNGKASKREIVKHPGAVAVLAVTDEGKIIMVKQFRKPLERTIVEIPAGKLEKGEEPEYTALRELEEETGYTAKKLTKITAFYTSPGFADEIVHVFLAEELSVLEEKRELDEDEFVEVMEVTLEDALKLVESREVYDAKTAYAIQYLQLKEALQAQK
In the case of B8, in data set [5], the IPP hydrolysis product entry is recorded as “hydrolyze IPP to IP, but not to isopentenol”.

The values are drawn from patent publication US11660961B2, “Host cells and methods for producing isopentenol from mevalonate” (The Regents of the University of California, priority 2015, dated 2023).
